Assay results taken from patent publication US20100291160A1, “PHARMACEUTICAL SYSTEM FOR TRANS-MEMBRANE DELIVERY” (priority 2009, published 2010).
Where a name gives a salt, the structure may show the parent alone.

Tests used:
[1] = in vitro diffusion of formulation across membrane mounted on vial; assay type: in vitro ADME, pig or sheep; details: for Optimal pH Conditions with Experimental Formulation: pH found to produce rapid diffusion across the membrane, pH adjusted with sodium bicarbonate or citric acid
Text: A flat section of either pig or sheep intestinal membrane is mounted across the open top of the vial. A screw top having a 7 mm hole (approximate) is then screwed to the vial, thereby securing the membrane to the vial. The vial is inverted and immersed in an isotonic solution (e.g., saline). Diffusion of the formulation is then allowed to proceed. The isotonic solution may be agitated with a magnetic stirrer. A pipette is used to sampling the saline solution at designated time intervals (e.g., 5, 10, 30, 60, 90, 180, and 600 seconds).
Other membranes may be used, including commonly available natural casing for food preparation, or cell culture human membranes (e.g. membranes from MatTek Corporation; Ashland, Mass.). […] Samples may contain vitamin B12 and arginine. The pH of the formulation may be adjusted as necessary.
The following compounds were analyzed in in vitro tests and the pH of the solutions were adjusted to the values noted below with either sodium bicarbonate (solid) or citric acid to produce the desired testing pH solutions.

[2] = in vivo sublingual administration to rats, active agent in plasma by HPLC; set-up: species or system Sprague Dawley rats; details: sublingual experimental formulation in rats; ng/mL in serum relative to ng/mL in serum from published studies (conventional control dose)
Procedure: Formulations comprising a variety of active agents were also tested in vivo. A […] volume/400 g animal formulation was administered sublingually to rats (Sprague Dawley rats, with jugular catheters were purchased from Charles River Laboratories). All rats were in the 275-300 g weight range.
All dose formulations were prepared on the day of dosing. Prior to dose administration, each rat was anesthetized with ketamine:xylazine (7:1, 60 mg/kg, IM) and positioned (supine) so that the head and shoulders were in alignment to preclude drainage of the dose into the trachea or esophagus. The mouth was opened and the interior (including under the tongue) was swabbed with dry cotton applicators. The tongue was held up and the dose was dispensed (same technician for all applications) into the sublingual pocket. The tongue was allowed to return to a normal position and the mouth was allowed to close.
Blood samples were drawn via catheter or cardiac puncture either 10 minutes following administration, or over a time range including 30 seconds, 1 minute, 5 minutes and 15 minutes following administration. The concentration (ng/mL) of the active agent in rat plasma was calculated using high powered liquid chromatography (HPLC). Efficiency was calculated as (ng/mL administered active agent in serum)/(ng/mL active agent in serum from published studies).

CCCC[C@H](NC(C)=O)C(=O)N[C@H]1CC(=O)NCCCC[C@@H](C(=O)O)NC(=O)[C@H](Cc2c[nH]c3ccccc23)NC(=O)[C@H](CCCN=C(N)N)NC(=O)[C@@H](Cc2ccccc2)NC(=O)[C@H](Cc2cnc[nH]2)NC1=O [Bremelanotide]
Optimal pH Conditions with Experimental Formulation [1]: pH 6.0 to 8.0 | Observed Plasma Levels [2]: 136.00%

CNC[C@H](O)c1ccc(O)c(O)c1 [Epinephrine]
Optimal pH Conditions with Experimental Formulation [1]: pH 5.0 to 7.0 | Observed Plasma Levels [2]: 0 to 600%

CCCc1nn(C)c2c(=O)[nH]c(-c3cc(S(=O)(=O)N4CCN(C)CC4)ccc3OCC)nc12 [Sildenafil]
Optimal pH Conditions with Experimental Formulation [1]: pH 6.8

CC[C@H](C)[C@H](NC(=O)[C@H](CCC(=O)O)NC(=O)[C@H](CO)NC(=O)[C@@H](NC(=O)[C@@H](N)CO)C(C)C)C(=O)N[C@@H](CCC(N)=O)C(=O)N[C@@H](CC(C)C)C(=O)N[C@@H](CCSC)C(=O)N[C@@H](Cc1cnc[nH]1)C(=O)N[C@@H](CC(N)=O)C(=O)N[C@@H](CC(C)C)C(=O)NCC(=O)N[C@@H](CCCCN)C(=O)N[C@@H](Cc1cnc[nH]1)C(=O)N[C@@H](CC(C)C)C(=O)N[C@@H](CC(N)=O)C(=O)N[C@@H](CO)C(=O)N[C@@H](CCSC)C(=O)N[C@@H](CCC(=O)O)C(=O)N[C@@H](CCCN=C(N)N)C(=O)N[C@H](C(=O)N[C@@H](CCC(=O)O)C(=O)N[C@@H](Cc1c[nH]c2ccccc12)C(=O)N[C@@H](CC(C)C)C(=O)N[C@@H](CCCN=C(N)N)C(=O)N[C@@H](CCCCN)C(=O)N[C@@H](CCCCN)C(=O)N[C@@H](CC(C)C)C(=O)N[C@@H](CCC(N)=O)C(=O)N[C@@H](CC(=O)O)C(=O)N[C@H](C(=O)N[C@@H](Cc1cnc[nH]1)C(=O)N[C@@H](CC(N)=O)C(=O)N[C@@H](Cc1ccccc1)C(=O)O)C(C)C)C(C)C [Teriparatide (rDNA Origin), Teriparatide]
Optimal pH Conditions with Experimental Formulation [1]: pH 6.8

CCCc1nn(C)c2c(=O)[nH]c(-c3cc(S(=O)(=O)N4CCN(C)CC4)ccc3OCC)nc12 [sildenafil citrate]
Observed Plasma Levels [2]: 169.00%

Adalimumab
Optimal pH Conditions with Experimental Formulation [1]: pH 7.7

Enoxaparin Sodium
Optimal pH Conditions with Experimental Formulation [1]: pH 8.0 to 6.0

Etanercept
rate of absorption ([1]; at lower pH values (than approximately 8.0)): dramatically reduced by at least a factor of five times | transport of the drug after elimination of each of the cofactors of the formulation ([1]; in most tests): slight to substantial decreases | pH at which transport occurred ([1]; in vitro membrane test of Example 3): 8 pH | rates of membrane transport ([1]; pH adjusted to approximately 8.0): substantially increased | Optimal pH Conditions with Experimental Formulation [1]: pH 8

B1: Neupogen: a filgrastim (e.g., G-CSF, Neupogen) (protein, UniProt P09919 31-207, looked up)
Granulocyte …: TPLGPASSLPQSFLLKCLEQVRKIQGDGAALQEKLVSECATYKLCHPEELVLLGHSLGIPWAPLSSCPSQALQLAGCLSQLHSGLFLYQGLLQALEGISPELGPTLDTLQLDVADFATTIWQQMEELGMAPALQPTQGAMPAFASAFQRRAGGVLVASHLQSFLEVSYRVLRHLAQP
modifications: filgrastim
Optimal pH Conditions with Experimental Formulation [1]: pH 7.4
